{"source": "a protein production outcome set (Wang et al. 2014)", "assay": "label from the status in PepcDB records", "data": [{"sequence": "MNKALWYVVLPALLVTVLAQRFGHLTVNFPLKSVFGGAAPAEAALHRRIALPSGFSLTVYAADLPGARMLRFTRTGDLLVSQPNAGAIVLLEKDADGDGRPDGRRQLLTGLSRPHGLDLRDGWLYVAETYGVVRVRYDAAQRQISGAPEMVVSGIPGGGNHWSRTLKFGPDGGMYVSVGSSCNVCIEDDPLRATLLRFEPDGTKREIYATGLRNTVGFDWRPGSRELYGTDNGRDLLGDDFPPCELNRIEKGGFYGWPYANGNRVPDPDYGRGHEADIRRSLPPVHEFRAHVAPLGMVFLKGGGLPQDYRGAALVALHGSWNRSKKQGYEVVSLHFGADGRIAERPFMTGFNVDEDVIGRPVDVAEGPDGAIYVSDDYAGAIYRVLYRPPVTASHD", "values": [{"measurement": "protein production", "value": "failed"}]}, {"sequence": "MLEAAQGAPASSGRRTRRPGLSEEVLRAYAYACAFCGYDGMLGRNPVGLEAAHIRWHSQDGPDTLANALALCALHHILFGLGVLGLSPGLRIQVSPLYVARSHAGHAVGILHRRPLAPPRPGHPSPGPEHIHWHHQQVFKHAPTPVAR", "values": [{"measurement": "protein production", "value": "failed"}]}, {"sequence": "MSVSIILMGLFVGALVGLTGVGGAALLTPLLIVLGINPSIAVGTDLVYNSITKLFGVASHWRQKTINFKLVKYLAIGSIPSASLAIGILHLFPAFHQHQEEIIKHALGYVLTLVAISIIVRLFLDRKLRPNRWQLMPLENKRALTILIGVVFGFIVGLTSIGSGSLFAIAMIYLFNMKASQIVGTDIAHAFLLVTAAGILNASFGSVDYMLAANLLLGSIPGVLIGSHLSPRFSPRPLQFIMASIILVSGLKLI", "values": [{"measurement": "protein production", "value": "failed"}]}, {"sequence": "MDPITHGALGAACAQAALGKYDKRIPWQAGALAGMAPDLDVFIRFSQEPLSLEQWHRYLTHSLMFIPIGGLIVALFLLCFSQYRQYWKITIGASLVGYATHCLLDSLTSYGTVLFWPWSDSRISWDIISIIDPVFTLPLLLGTAWSVIYQNQKAVIASLFFCILFLIFNTILHNRAVDGIHQYATTNNFKINHPRALPKLASSTYWRIIAKQQDCLIIAEAKTSLFYPTTIRLIRQALSFNESMIPFALSSGQKSDLATFHWFTDGFLIVANKNPLILADARYTIDDNPIFSLWGIEILPGQEHINKLSLPKINEYCESPDSERYKEDGLN", "values": [{"measurement": "protein production", "value": "failed"}]}, {"sequence": "MEKKLAPQFDNFYQSCRRYFQKLSRNKNFRSLKVYLLILTIVMVVIINPLSSNISGIVNILPTTTEKITHKSSAQQTDKQSHKTSNKAAYKTSWIGNTFGGKKWVQIQMEGIYVTPNGTVYVNSHWDEAGREVGIYKDGDVIGKADDLHGWGRLGGKAITANQKYLYVAMRQSHEGKPEDDYPPKGTTWYNVRRYDLSGKPAPFAGGRGWDKSMLIVNSKNDVTGLATKDKELYVSDPANDRLRVYNTDTMQELRSFSVPNPGAIAVDRQNNLWVVQKKKIVRYSPQGKQLAQQITDVANPSAIAFDPQGRLLVADNGKRQQVLIYNIANKPKQVGTLGDKGGIYGGTSGEVKDGKLYGITGVGTDKSGNIYVSNHGFNSTGADLRKFSSSGKLQWRLLGLQFIDNADADPDSDGRDVFTKNEHFVMDYSKNNGKEWTYKGYTLDKFRYPDDGRLHTTPTSAFVRRLGGKRLLYLSSEMMAERLLIYRFDGEIAVPCGIFGKNHLSWPPNQPKDGSWLWRDVNGDGSIQNNEYKTLGEEDGSVWGWEIDSKGDIWQAAEAGYIKHYPYQKLDNHGCPIYGQAVGGRIPMPAPFKTLTRIKYFPKQDVMYLGGYTNEHPNLDGDWGLVGTEIVRYDNWSKKRNLRWRIVLPYNHQTDPKLHIKSIDVAGDRVFAVASKKAEVYVYKATTGEALQMLTPGAEVGGESGWIDIPYGIRAFRRANGEYLVFVEENAKGKVLMYRLPG", "values": [{"measurement": "protein production", "value": "failed"}]}, {"sequence": "MLKRKLILIAYTLLGLSSPVFSADYITENLSTYMRKGAGDQYKISGAVQAGEKVTVLDRKDRFVLIRDSRNREGWVLASEISQTASPKDLIPQLQQQVQDLSSKLGKIDADWQQRTLEMQRRSQQAEQQSSQLLDQNAQLKRELDILKNKNRDLETMHDSAKREIVIQWFIYGGSVLAVGLLLGLIIPFILPRRKRHNGWS", "values": [{"measurement": "protein production", "value": "failed"}]}, {"sequence": "MEKFTVSKRHWLLLWGLQLGLAGGAAPVFSQAVLPYTPNLDQQQLEDQGLALTEDVVQLVRFQQYDLAFPRAKLATQLAPEQFQTWFILGTLYLQQEEVEPGITVLKKAEALAPEEAGIKFTLGNAYFQKGQYDQAVEVLLAGLAQRPDTPAALFDLGNAYLKLVKYPDAVTAYQKALKAEEQFWPALNNIGLIEYEQGKIDTALKRWQEVIKIDSEQPEPQLAIAVALYKQGKTEEGLRKAQDALNLDSRYGEIDFLVKNLWGEQLIADTKALFATPTMVEVLRTLPPPSDDL", "values": [{"measurement": "protein production", "value": "failed"}]}, {"sequence": "MYFVDRSKIEKTLGFFEHQLALFDSQTDWQSEIGELALQRIGHLLIECILDTGNDMIDGFIMRDPGSYDDIMDILVDEKVVTEKEGDELKKLIAYRKTLVQQYLLADSGELYRLIKAHQTALQDFPKRIRSYLETELGPVSAFK", "values": [{"measurement": "protein production", "value": "not failed"}]}, {"sequence": "MWDVIVVGGGPSGLSAALFLARAGLKVLVLDGGRSKVKGVSRVPNYPGLLDEPSGEELLRRLEAHARRYGAEVRPGVVKGVRDMGGVFEVETEEGVEKAERLLLCTHKDPTLPSLLGLTRRGAYIDTDEGGRTSYPRVYAAGVARGKVPGHAIISAGDGAYVAVHLVSDLRGEPYKDHAL", "values": [{"measurement": "protein production", "value": "not failed"}]}, {"sequence": "MDNLMLNNKIYLEGTVVSELEFSHEMYGEGFYTFNLEVMRLSDSKDLLNITVSERLITTMDLKIGTEIVVEGQLRSYNKFIDGNNKLILTVFARNIEYCEERSKNPNEIFLDGFICKEPVYRTTPFGREIADLLLAVNRSYNKSDYIPTIAWGRNSRFCKTLEVGDNIRIWGRLQSREYQKKISETEVVKKIAYEVSISKMEKVSVESEQNESGEEISLEHHHHHH", "values": [{"measurement": "protein production", "value": "failed"}]}, {"sequence": "MTNAFSEELALEAAGLDAIFGKDFKAEETTTGHVRWSVPLSHNGVELELAFLLDSAYPLDSEPQVRVTCKEGLSLRAVRELEGHLQKVAAENRGSPSAYLLYTAAQDWIDTHDRREAAEAISATIASTRLSAREPDSAGTGTTFETKAESFTQLVEHETLEHATIDRTLGTPVTPETFAAWKQEFDKYLLENGILDIANNADIELDASQGGWKGNSRRKPTGRELFTMHREMFVDDFEESDQCESTASGACDTQGSELAEHVDASLFLS", "values": [{"measurement": "protein production", "value": "failed"}]}, {"sequence": "MSLSYLTEEKLTIVGAAGMIGSNMAQTAAMMRLTPNLCLYDPFAVGLEGVAEEIRHCGFEGLNLTFTSDIKEALTDAKYIVSSGGAPRKEGMTREDLLKGNAEIAAQLGKDIKSYCPDCKHVIIIFNPADITGLVTLIYSGLKPSQVTTLAGLDSTRLQSELAKHFGIKQSLVTNTRTYGGHGEQMAVFASTAKVNGTPLTDLIGTDKLTNEQWAELKQRVVKGGANIIKLRGRSSFQSPSYVSIEMIRAAMGGEAFRWPAGCYVNVPGFEHIMMAMETTITKDGVKHSDINQLGNEAERAALKESYSHLAKLRDEVIAMGIIPAIADWKTVNPNEGHHHHHH", "values": [{"measurement": "protein production", "value": "not failed"}]}, {"sequence": "MKRYRTLLFDVDDTILDFQAAEALALRLLFEDQNIPLTNDMKAQYKTINQGLWRAFEEGKMTRDEVVNTRFSALLKEYGYEADGALLEQKYRRFLEEGHQLIDGAFDLISNLQQQFDLYIVTNGVSHTQYKRLRDSGLFPFFKDIFVSEDTGFQKPMKEYFNYVFERIPQFSAEHTLIIGDSLTADIKGGQLAGLDTCWMNPDMKPNVPEIIPTYEIRKLEELYHILN", "values": [{"measurement": "protein production", "value": "not failed"}]}, {"sequence": "MNNLPLLNDLRVFMLVARRAGFAAAAEELGVSPAFVSKRVSLLEQTLNVMLLHRTTRRVTITEEGERIYEWAQRILQDVDEMMDELSDVRQVPQGTLRIISSFGFGRRVVAPALSALALQYPQLELRFDVQDRLVDLVNEGVDLDIRVGDDIAPNLIARQLAANHRVLCASPQFLARHAPPKQLSDLAALPCLVIKERDHPFGVWQLHSKEGQHAIKVTGPLSSNHGEIVHQWCLDGQGIALRSWWDVRENIASGHLVQVLPDYWQPANVWAVYVSRLATSAKIRTTVEFLRHYFQLHYPQHEPTASAVGRGD", "values": [{"measurement": "protein production", "value": "failed"}]}, {"sequence": "MFITFEGIDGSGKTTQSHLLAEYLSEIYGVNNVVLTREPGGTLLNESVRNLLFKAQGLDSLSELLFFIAMRREHFVKIIKPSLMQKKIVICDRFIDSTIAYQGYGQGIDCSLIDQLNDLVIDVYPDITFIIDVDINESLSRSCKNGYEFADMEFYYRVRDGFYDIAKKNPHRCHVITDKSETYDIDDINFVHLEVIKVLQMV", "values": [{"measurement": "protein production", "value": "not failed"}]}, {"sequence": "MPPKTPRKTAATAAAAAAEPPAPPPPPPPEEDPEQDSGPEDLPLVRLEFEETEEPDFTALCQKLKIPDHVRERAWLTWEKVSSVDGVLGGYIQKKKELWGICIFIAAVDLDEMSFTFTELQKNIEISVHKFFNLLKEIDTSTKVDNAMSRLLKKYDVLFALFSKLERTCELIYLTQPSSSISTEINSALVLKVSWITFLLAKGEVLQMEDDLVISFQLMLCVLDYFIKLSPPMLLKEPYKTAVIPINGSPRTPRRGQNRSARIAKQLENDTRIIEVLCKEHECNIDEVKNVYFKNFIPFMNSLGLVTSNGLPEVENLSKRYEEIYLKNKDLDARLFLDHDKTLQTDSIDSFETQRTPRKSNLDEEVNVIPPHTPVRTVMNTIQQLMMILNSASDQPSENLISYFNNCTVNPKESILKRVKDIGYIFKEKFAKAVGQGCVEIGSQRYKLGVRLYYRVMESMLKSEEERLSIQNFSKLLNDNIFHMSLLACALEVVMATYSRSTSQNLDSGTDLSFPWILNVLNLKAFDFYKVIESFIKAEGNLTREMIKHLERCEHRIMESLAWLSDSPLFDLIKQSKDREGPTDHLESACPLNLPLQNNHTAADMYLSPVRSPKKKGSTTRVNSTANAETQATSAFQTQKPLKSTSLSLFYKKVYRLAYLRLNTLCERLLSEHPELEHIIWTLFQHTLQNEYELMRDRHLDQIMMCSMYGICKVKNIDLKFKIIVTAYKDLPHAVQETFKRVLIKEEEYDSIIVFYNSVFMQRLKTNILQYASTRPPTLSPIPHIPRSPYKFPSSPLRIPGGNIYISPLKSPYKISEGLPTPTKMTPRSRILVSIGESFGTSEKFQKINQMVCNSDRVLKRSAEGSNPPKPLKKLRFDIEGSDEADGSKHLPGESKFQQKLAEMTSTRTRMQKQKMNDSMDTSNKEEK", "values": [{"measurement": "protein production", "value": "failed"}]}, {"sequence": "MDAMEFFRQSAGQWRSQRTTHHLAFRRAENGDSSISVEALEKDDPRVIEICTMHEVDPATAIGGAYVSWQGSMEWDRDAEGHSGTTVFALVPDDASGRSGQLLRERGYAEIVPVIGRFELDENNNLNLVTDYETMSAVEQFWFMGPSLRLRASTVTRFGGLSTAAFCAEVRQTEAAADSEPLKADQLYSSLGW", "values": [{"measurement": "protein production", "value": "failed"}]}, {"sequence": "MKCNERDCNNDNGEEDEKDTNTTIAVKLPATTALIVGYDPIDDQHKALSLKRKRTEKLSFINALKGFVQWGSEAVFIEYKGKLASIDLETVKSLGALMDSKEPPAPVNLLF", "values": [{"measurement": "protein production", "value": "failed"}]}, {"sequence": "MSLSINSREVLAEKVKNAVNNQPVTDMHTHLFSPNFGEILLWDIDELLTYHYLVAEVMRWTDVSIEAFWAMSKREQADLIWEELFIKRSPVSEACRGVLTCLQGLGLDPATRDLQVYREYFAKKTSEEQVDTVLQLANVSDVVMTNDPFDDNERISWLEGKQPDSRFHAALRLDPLLNEYEQTKHRLRDWGYKVNDEWNEGSIQEVKRFLTDWIERMDPVYMAVSLPPTFSFPEESNRGRIIRDCLLPVAEKHNIPFAMMIGVKKRVHPALGDAGDFVGKASMDGVEHLLREYPNNKFLVTMLSRENQHELVVLARKFSNLMIFGCWWFMNNPEIINEMTRMRMEMLGTSFIPQHSDARVLEQLIYKWHHSKSIIAEVLIDKYDDILQAGWEVTEEEIKRDVADLFSRNFWRFVGRNDHVTSVKVEQQTEGHHHHHH", "values": [{"measurement": "protein production", "value": "not failed"}]}]}
